Consider two molecules from PMC9636267 (2022).

Where two headings read alike, the source gives them in different places.

Sequences and labels used below:
T1: HCoV-229E RBD (294–435 aa) (human coronavirus 229E, UniProt P15423 294-435)
T1 chain: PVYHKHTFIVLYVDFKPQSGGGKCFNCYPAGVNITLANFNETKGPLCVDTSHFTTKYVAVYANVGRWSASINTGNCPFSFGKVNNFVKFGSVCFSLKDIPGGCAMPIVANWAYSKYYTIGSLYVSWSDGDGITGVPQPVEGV

T2: HCoV-229E S1 subunit (17–560 aa) (human coronavirus 229E, UniProt P15423 17-560)
T2 chain: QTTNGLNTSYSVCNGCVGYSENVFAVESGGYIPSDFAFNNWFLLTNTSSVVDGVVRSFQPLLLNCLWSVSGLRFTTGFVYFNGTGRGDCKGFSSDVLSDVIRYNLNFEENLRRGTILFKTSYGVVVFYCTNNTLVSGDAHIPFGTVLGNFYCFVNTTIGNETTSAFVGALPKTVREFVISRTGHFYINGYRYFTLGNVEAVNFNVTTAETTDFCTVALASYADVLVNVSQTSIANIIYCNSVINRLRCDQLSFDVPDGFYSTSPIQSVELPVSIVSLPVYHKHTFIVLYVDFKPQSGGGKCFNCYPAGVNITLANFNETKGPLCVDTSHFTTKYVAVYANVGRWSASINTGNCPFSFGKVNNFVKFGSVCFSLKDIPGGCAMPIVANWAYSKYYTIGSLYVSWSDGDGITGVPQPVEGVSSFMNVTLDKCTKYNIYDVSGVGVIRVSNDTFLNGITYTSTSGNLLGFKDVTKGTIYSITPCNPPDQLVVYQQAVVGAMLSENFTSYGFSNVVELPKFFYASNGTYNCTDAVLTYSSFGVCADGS

B1: HCoV-229E S ectodomain (17–1115 aa), 229E S trimer (domain or fragment)
chain: QTTNGLNTSYSVCNGCVGYSENVFAVESGGYIPSDFAFNNWFLLTNTSSVVDGVVRSFQPLLLNCLWSVSGLRFTTGFVYFNGTGRGDCKGFSSDVLSDVIRYNLNFEENLRRGTILFKTSYGVVVFYCTNNTLVSGDAHIPFGTVLGNFYCFVNTTIGNETTSAFVGALPKTVREFVISRTGHFYINGYRYFTLGNVEAVNFNVTTAETTDFCTVALASYADVLVNVSQTSIANIIYCNSVINRLRCDQLSFDVPDGFYSTSPIQSVELPVSIVSLPVYHKHTFIVLYVDFKPQSGGGKCFNCYPAGVNITLANFNETKGPLCVDTSHFTTKYVAVYANVGRWSASINTGNCPFSFGKVNNFVKFGSVCFSLKDIPGGCAMPIVANWAYSKYYTIGSLYVSWSDGDGITGVPQPVEGVSSFMNVTLDKCTKYNIYDVSGVGVIRVSNDTFLNGITYTSTSGNLLGFKDVTKGTIYSITPCNPPDQLVVYQQAVVGAMLSENFTSYGFSNVVELPKFFYASNGTYNCTDAVLTYSSFGVCADGSIIAVQPRNVSYDSVSAIVTANLSIPSNWTTSVQVEYLQITSTPIVVDCSTYVCNGNVRCVELLKQYTSACKTIEDALRNSARLESADVSEMLTFDKKAFTLANVSSFGDYNLSSVIPSLPTSGSRVAGRSAIEDILFSKLVTSGLGTVDADYKKCTKGLSIADLACAQYYNGIMVLPGVADAERMAMYTGSLIGGIALGGLTSAVSIPFSLAIQARLNYVALQTDVLQENQKILAASFNKAMTNIVDAFTGVNDAITQTSQALQTVATALNKIQDVVNQQGNSLNHLTSQLRQNFQAISSSIQAIYDRLDTIQADQQVDRLITGRLAALNVFVSHTLTKYTEVRASRQLAQQKVNECVKSQSKRYGFCGNGTHIFSIVNAAPEGLVFLHTVLLPTQYKDVEAWSGLCVDGTNGYVLRQPNLALYKEGNYYRITSRIMFEPRIPTMADFVQIENCNVTFVNISRSELQTIVPEYIDVNKTLQELSYKLPNYTVPDLVVEQYNQTILNLTSEISTLENKSAELNYTVQKLQTLIDNINSTLVDLKWLNRVETYIKWP
B2: Fab C04 (Fab, V domains shown)
VH: EVQLVESGGGLVQPGGSLRLSCAASGFNISSSYIHWVRQAPGKGLEWVASIYSSYGYTYYADSVKGRFTISADTSKNTAYLQMNSLRAEDTAVYYCARWWASVGGAGGGLDYWGQGTLVTVSS
VL: DIQMTQSPSSLSASVGDRVTITCRASQSVSSAVAWYQQKPGKAPKLLIYSASSLYSGVPSRFSGSRSGTDFTLTISSLQPEDFATYYCQQGYGWLITFGQGTKVEIK

Holding throughout (assay): SPR
A general note: Surface plasmon resonance follows binding to a sensor surface in real time, without labels.

Experiment [1] deals with R14.
Experiment [2] has as its target R17.
Experiment [3] concerns the target S10.
For experiment [4], the target named is R10.
For experiment [5], the target named is S02.
Experiment [6] concerns the target S15.
The target in experiment [7] is S08.
Experiment [8] concerns the target R07.
Experiment [9] concerns the target R14. The source holds these as a separate data set.
In experiment [10] the target is R17. This is another data set of the same source.
In experiment [11] the target is S10. The source holds these as a separate data set.
Experiment [12] concerns the target R10. This is another data set of the same source.
Experiment [13] has as its target S02. This is another data set of the same source.
For experiment [14], the target named is S15. This is another data set of the same source.
Experiment [15] addresses S08. The source holds these as a separate data set.
Experiment [16] has as its target R07. This is another data set of the same source.
Experiment [17] concerns the target B1.
Experiment [18] deals with T1, HCoV-229E RBD (294–435 aa).
In experiment [19] the target is B1.
The target in experiment [20] is T2, HCoV-229E S1 subunit (17–560 aa).
Experiment [21] concerns the target T1, HCoV-229E RBD (294–435 aa).
The target of experiment [22] is T2, HCoV-229E S1 subunit (17–560 aa).

B1: the koff (as a rule, a measure of how fast the partners let go of each other) in experiment [1] worked out at 0.0039 s⁻¹; in experiment [2], 0.0024 s⁻¹; in [3], 0.0018 s⁻¹; in experiment [4], 0.0012 s⁻¹; in experiment [5] it was 0.0035 s⁻¹; in experiment [6], 0.00098 s⁻¹. The koff in [7] came to 0.0054 s⁻¹; in experiment [8], 0.0011 s⁻¹. Moreover, the Kd (commonly the concentration at which binding is half-saturated) in experiment [3] came to 0.28 nM; in [4], 0.43 nM; in experiment [5] it was 0.75 nM; in experiment [6], 0.44 nM; in experiment [9], 2.7 nM; in experiment [10] it was 2.4 nM. Further, the dissociation constant Kd in [11] came out at 0.3 nM; in experiment [12] it was 0.4 nM; in [13] it was 0.8 nM; in experiment [14], 0.4 nM; in [15], 2.4 nM; in experiment [16] it was 2 nM.

Regarding B2, the values for the koff in [17], in experiment [21] and in experiment [22] were 0.0064 s⁻¹, 0.0055 s⁻¹ and 0.007 s⁻¹, respectively. Further, the results for the Kd in experiment [18], in [19] and in experiment [20] were 2.9 nM, 4.4 nM and 7.3 nM, respectively.
